In patent US4585754A, “Stabilization of proteins and peptides by chemical binding with chondroitin” (Valcor Scientific, Ltd., priority 1984, dated 1986):

What was measured:
blood glucose levels = assay: lowering blood glucose levels in mice, bound versus free insulin; type: in vivo, Female CD-1 Swiss white mice; conditions: subcutaneous, fasted mice
Experimental: Female CD-1 Swiss white mice averaging 20 g in weight were fasted overnight and used in groups of four. The insulins were injected subcutaneously, and blood specimens (50 microliters, by retro-orbital bleeding) were taken at intervals of 0.5, 3, 6, and 24 hours.

[1] = native, unmodified protein; cited from earlier work
trypsin = assay: stability against proteolytic digestion by trypsin; type: in vitro ADME; conditions: 50 mcg./ml. trypsin, pH 7.8, 23 C, 10 mg./ml., after just over forty minutes
Experimental: (§1) The SOD-chondroitin sulfate A product was tested for stability against proteolytic digestion. An aqueous solution containing 10 mg./ml. of the product was incubated with 50 mcg./ml. of trypsin at pH 7.8 and 23 C, and aliquots were withdrawn from time to time and the SOD activity determined. For comparison, SOD alone with incubated with trypsin under the same conditions. After just over forty minutes, approximately 88 percent of the SOD-chondroitin product remained in the solution, compared with only about 8 percent of the unprotected SOD. This is a difference in stability of over eight-fold.

pepsin = assay: stability against proteolytic digestion by pepsin; type: in vitro ADME; conditions: pepsin 500 ng./ml., pH 3.5, at two minutes
Experimental: as §1
Inasmuch as trypsin is known to be a very specific protease, cleaving only at the arginine and lysine residues, a further test was carried out according to substantially the same procedure using pepsin, a much more vigorous protease. The pH was kept low (3.5), since the optimum pH for pepsin is known to about 1.0-1.5. Even at the lowest concentration of pepsin tested (500 ng./ml.), digestion was very fast, but there was some degree of protection by the chondroitin compared with unprotected SOD.

Substance | blood glucose level at 24 hours (blood glucose levels; all dose levels, 24 hours) | comatose state (blood glucose levels; doses of 5.7 micrograms and above) | half-life in the body [1] | percent remaining in the solution (SOD activity) (trypsin) | SOD remaining after pepsin digestion (pepsin)
insulin [free insulin] | significant rebound glucose level by 24 hours | comatose in one-half hour | about 15 minutes |  | 
superoxide dismutase [unprotected SOD] |  |  | about five | about 8% | essentially all destroyed
